Test results from US20230035235A1.
Values belong to the substance of their own block, whether it stands above or below them.

Assays:
DPF3 (human) = DPF3 (human) (UniProt Q92784); test: HA affinity purification from HEK-293T nuclear extract, glycerol gradient fraction 15, mass spectrometry (co-purification in the complex)
GLTSCR1 (human) = GLTSCR1 (human) (UniProt Q9NZM4); test: as above
BRD9 (human) = BRD9 (human) (UniProt Q9H8M2); test: as above
ACTL6A (human) [1] = molecular target: ACTL6A (human) (UniProt O96019); test: as above
Chain of ACTL6A (human) (O96019 2-429 limits assumed): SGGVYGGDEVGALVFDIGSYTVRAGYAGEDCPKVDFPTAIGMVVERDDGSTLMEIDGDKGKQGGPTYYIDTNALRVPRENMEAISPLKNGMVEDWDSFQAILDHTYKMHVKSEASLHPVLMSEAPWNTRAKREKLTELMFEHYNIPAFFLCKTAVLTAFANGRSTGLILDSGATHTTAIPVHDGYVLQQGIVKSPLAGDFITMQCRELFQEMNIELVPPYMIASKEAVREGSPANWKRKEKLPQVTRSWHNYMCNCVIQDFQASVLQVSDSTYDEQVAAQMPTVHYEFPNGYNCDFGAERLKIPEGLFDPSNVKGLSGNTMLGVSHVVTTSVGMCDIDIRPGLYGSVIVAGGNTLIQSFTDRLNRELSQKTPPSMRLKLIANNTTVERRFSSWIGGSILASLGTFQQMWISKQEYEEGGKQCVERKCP

SS18L1 (human) [2] = molecular target: SS18L1 (human) (UniProt O75177); test: as above
Chain of SS18L1 (human) (O75177 whole entry): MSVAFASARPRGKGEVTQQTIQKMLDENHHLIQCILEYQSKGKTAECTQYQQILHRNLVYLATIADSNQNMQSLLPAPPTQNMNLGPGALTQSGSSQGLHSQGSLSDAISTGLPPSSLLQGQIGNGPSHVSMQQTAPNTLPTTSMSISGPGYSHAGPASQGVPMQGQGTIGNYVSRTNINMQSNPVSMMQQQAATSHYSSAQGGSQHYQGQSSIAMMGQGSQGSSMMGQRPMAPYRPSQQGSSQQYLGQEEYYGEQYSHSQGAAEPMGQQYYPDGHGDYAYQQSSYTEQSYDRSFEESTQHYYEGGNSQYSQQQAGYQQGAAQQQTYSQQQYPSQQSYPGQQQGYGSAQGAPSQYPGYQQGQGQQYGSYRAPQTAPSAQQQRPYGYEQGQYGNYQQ

SMARCB1 (human) [3] = molecular target: SMARCB1 (human) (UniProt Q12824); test: as above
Chain of SMARCB1 (human) (Q12824 whole entry): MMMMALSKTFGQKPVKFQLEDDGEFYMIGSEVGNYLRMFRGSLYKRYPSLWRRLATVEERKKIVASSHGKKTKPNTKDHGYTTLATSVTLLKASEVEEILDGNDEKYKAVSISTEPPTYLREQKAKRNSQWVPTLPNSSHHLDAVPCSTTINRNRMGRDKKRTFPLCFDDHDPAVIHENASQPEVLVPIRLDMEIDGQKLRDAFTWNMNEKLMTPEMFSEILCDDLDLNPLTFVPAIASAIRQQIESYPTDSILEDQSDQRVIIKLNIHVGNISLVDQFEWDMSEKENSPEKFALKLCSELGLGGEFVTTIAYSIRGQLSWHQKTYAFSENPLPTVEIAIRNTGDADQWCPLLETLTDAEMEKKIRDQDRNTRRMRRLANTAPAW

PHF10 (human) = PHF10 (human) (UniProt Q8WUB8); test: as above
Chain of PHF10 (human) (Q8WUB8 2-498 limits assumed): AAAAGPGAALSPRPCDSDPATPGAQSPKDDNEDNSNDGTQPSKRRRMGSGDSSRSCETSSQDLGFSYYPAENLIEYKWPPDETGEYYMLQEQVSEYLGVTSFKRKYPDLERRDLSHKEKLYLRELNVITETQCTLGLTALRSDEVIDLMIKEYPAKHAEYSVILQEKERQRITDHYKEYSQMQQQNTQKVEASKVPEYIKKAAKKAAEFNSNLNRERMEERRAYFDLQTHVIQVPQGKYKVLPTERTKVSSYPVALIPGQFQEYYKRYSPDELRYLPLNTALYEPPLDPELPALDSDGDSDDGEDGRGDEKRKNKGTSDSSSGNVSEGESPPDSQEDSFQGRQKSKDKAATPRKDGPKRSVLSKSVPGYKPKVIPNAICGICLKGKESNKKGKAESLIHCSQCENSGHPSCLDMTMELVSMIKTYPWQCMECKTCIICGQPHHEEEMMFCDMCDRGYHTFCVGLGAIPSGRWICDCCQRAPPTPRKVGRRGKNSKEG

BCL7C (human) [4] = molecular target: BCL7C (human) (UniProt Q8WUZ0); test: as above
DPF1 (human) = DPF1 (human) (UniProt Q92782); test: as above
Chain of DPF1 (human) (Q92782 whole entry): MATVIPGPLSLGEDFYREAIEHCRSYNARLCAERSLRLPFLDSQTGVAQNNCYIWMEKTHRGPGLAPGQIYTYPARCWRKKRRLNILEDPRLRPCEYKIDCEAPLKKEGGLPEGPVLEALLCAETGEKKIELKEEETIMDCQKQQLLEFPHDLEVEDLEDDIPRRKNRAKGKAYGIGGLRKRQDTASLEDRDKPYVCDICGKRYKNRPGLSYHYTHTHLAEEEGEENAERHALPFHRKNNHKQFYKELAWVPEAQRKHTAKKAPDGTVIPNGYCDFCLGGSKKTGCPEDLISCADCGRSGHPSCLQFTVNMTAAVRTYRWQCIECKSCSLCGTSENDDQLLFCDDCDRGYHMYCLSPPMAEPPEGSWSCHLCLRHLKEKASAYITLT

BCL7A (human) [5] = molecular target: BCL7A (human) (UniProt Q4VC05); test: as above
Chain of BCL7A (human) (Q4VC05 whole entry): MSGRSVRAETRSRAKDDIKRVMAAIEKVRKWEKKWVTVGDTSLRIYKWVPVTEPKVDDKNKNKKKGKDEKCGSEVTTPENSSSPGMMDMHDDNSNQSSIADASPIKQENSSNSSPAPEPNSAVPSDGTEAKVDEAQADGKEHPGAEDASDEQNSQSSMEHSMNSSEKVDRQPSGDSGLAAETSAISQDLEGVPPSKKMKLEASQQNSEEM

PBRM1 (human) = PBRM1 (human) (UniProt Q86U86); test: as above
BRD7 (human) = BRD7 (human) (UniProt Q9NPI1); test: as above
Chain of BRD7 (human) (Q9NPI1 whole entry): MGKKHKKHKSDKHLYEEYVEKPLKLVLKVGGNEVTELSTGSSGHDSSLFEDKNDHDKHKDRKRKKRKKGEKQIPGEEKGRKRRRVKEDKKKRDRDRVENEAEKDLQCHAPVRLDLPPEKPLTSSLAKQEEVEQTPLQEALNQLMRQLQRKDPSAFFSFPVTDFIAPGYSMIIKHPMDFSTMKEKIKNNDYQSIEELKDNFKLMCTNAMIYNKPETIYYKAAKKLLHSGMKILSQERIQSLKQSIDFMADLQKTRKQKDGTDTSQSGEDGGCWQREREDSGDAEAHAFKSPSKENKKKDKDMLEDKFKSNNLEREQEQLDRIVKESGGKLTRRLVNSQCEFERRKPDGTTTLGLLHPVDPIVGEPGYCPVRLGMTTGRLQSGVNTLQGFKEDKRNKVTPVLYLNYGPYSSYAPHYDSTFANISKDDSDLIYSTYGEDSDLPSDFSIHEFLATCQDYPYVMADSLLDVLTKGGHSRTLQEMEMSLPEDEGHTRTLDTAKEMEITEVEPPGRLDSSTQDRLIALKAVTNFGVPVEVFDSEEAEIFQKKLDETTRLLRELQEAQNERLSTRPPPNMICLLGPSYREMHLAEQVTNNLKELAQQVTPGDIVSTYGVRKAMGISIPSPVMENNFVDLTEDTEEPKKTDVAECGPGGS

DPF2 (human) = DPF2 (human) (UniProt Q92785); test: as above
Chain of DPF2 (human) (Q92785 2-391 limits assumed): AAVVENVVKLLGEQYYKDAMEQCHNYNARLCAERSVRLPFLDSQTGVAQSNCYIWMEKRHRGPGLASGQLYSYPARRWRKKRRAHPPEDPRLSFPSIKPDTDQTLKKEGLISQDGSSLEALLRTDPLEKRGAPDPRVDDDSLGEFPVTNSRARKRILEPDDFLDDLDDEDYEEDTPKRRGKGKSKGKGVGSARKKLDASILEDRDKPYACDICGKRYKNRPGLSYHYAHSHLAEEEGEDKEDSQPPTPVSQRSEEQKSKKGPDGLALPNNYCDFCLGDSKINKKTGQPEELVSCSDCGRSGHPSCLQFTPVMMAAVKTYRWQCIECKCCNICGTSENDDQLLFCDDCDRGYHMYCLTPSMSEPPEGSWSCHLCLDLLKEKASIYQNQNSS

GLTSCR1L (human) = GLTSCR1L (human) (UniProt Q6AI39); test: as above
[6] = molecular target: SMARCA4 (entry Q9HBD4) (human); test: HA affinity purification of HA-SMARCD1 mSWI/SNF complexes from HEK-293T nuclear extract, glycerol gradient fraction 15, mass spectrometry; co-purification in the complex, not necessarily direct contact
[7] = molecular target: DPF1 (entry E9PDV3) (human); test: as above
[8] = molecular target: DPF2 (Double PHD Fingers 2) (human) (UniProt Q92785); test: colloidal blue stain and fluorometric analysis of DPF2-purified complexes
SMARCE1 (human) = SMARCE1 (human) (UniProt Q969G3); test: HA affinity purification of HA-DPF2 from HEK-293T nuclear extract, glycerol gradient fraction 14, mass spectrometry of co-purified proteins
Chain of SMARCE1 (human) (Q969G3 whole entry): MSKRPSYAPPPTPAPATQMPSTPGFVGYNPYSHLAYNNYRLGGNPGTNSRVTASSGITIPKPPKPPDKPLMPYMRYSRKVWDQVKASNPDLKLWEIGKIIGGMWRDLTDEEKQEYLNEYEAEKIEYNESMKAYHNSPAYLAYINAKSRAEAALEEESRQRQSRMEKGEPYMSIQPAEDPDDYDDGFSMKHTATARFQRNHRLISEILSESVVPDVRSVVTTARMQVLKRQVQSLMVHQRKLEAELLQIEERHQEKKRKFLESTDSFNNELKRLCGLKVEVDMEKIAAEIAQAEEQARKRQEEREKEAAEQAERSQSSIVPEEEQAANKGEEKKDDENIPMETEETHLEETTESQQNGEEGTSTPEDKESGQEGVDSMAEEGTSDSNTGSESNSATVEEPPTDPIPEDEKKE

ACTL6A (human) [9] = molecular target: ACTL6A (human) (UniProt O96019); test: as above
SS18L1 (human) [10] = molecular target: SS18L1 (human) (UniProt O75177); test: as above
SMARCB1 (human) [11] = molecular target: SMARCB1 (human) (UniProt Q12824); test: as above
SMARCD1 (human) = SMARCD1 (human) (UniProt Q96GM5); test: as above
BCL7C (human) [12] = molecular target: BCL7C (human) (UniProt Q8WUZ0); test: as above
BCL7A (human) [13] = molecular target: BCL7A (human) (UniProt Q4VC05); test: as above
SS18 (human) = SS18 (human) (UniProt Q15532); test: as above
Chain of SS18 (human) (Q15532 2-418 limits assumed): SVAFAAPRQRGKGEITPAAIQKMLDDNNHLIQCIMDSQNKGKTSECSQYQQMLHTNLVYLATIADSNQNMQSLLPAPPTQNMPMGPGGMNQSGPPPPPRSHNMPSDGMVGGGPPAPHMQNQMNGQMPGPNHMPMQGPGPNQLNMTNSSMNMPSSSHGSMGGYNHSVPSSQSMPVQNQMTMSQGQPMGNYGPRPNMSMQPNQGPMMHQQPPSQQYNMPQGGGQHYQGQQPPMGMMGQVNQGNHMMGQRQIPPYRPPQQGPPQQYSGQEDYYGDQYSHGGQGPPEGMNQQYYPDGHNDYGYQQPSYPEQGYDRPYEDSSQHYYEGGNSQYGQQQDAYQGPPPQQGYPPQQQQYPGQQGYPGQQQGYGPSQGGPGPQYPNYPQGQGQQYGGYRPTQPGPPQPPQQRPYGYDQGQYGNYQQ

SMARCD2 (human) = SMARCD2 (human) (UniProt Q92925); test: as above

Chain of BRD9 (human) (Q9H8M2 whole entry): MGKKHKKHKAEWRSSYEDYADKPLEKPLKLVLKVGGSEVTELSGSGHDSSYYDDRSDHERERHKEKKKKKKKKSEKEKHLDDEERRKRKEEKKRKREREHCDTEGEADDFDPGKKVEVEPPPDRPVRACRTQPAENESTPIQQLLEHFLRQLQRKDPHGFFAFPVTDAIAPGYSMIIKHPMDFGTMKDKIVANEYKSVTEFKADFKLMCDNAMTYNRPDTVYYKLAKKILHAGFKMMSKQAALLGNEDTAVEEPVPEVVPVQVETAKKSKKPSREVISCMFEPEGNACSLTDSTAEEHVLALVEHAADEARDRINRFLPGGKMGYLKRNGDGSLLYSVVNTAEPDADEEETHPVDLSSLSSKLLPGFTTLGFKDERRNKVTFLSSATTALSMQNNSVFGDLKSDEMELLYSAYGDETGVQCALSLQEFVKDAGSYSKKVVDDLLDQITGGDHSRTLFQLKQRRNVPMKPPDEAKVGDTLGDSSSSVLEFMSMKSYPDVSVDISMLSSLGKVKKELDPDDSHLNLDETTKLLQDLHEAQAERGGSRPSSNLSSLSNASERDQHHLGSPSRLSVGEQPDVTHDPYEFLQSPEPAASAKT

total peptides (DPF3 (human)): 12 peptides
unique peptides (DPF3 (human)): 10 peptides
total peptides (GLTSCR1 (human)): 11 peptides
unique peptides (GLTSCR1 (human)): 10 peptides
total peptides (BRD9 (human)): 8 peptides
unique peptides (BRD9 (human)): 8 peptides
total peptides (ACTL6A (human) [1]): 58 peptides
total peptides (SS18L1 (human) [2]): 2 peptides
unique peptides (SS18L1 (human) [2]): 2 peptides
total peptides (SMARCB1 (human) [3]): 75 peptides
total peptides (PHF10 (human)): 14 peptides
unique peptides (PHF10 (human)): 14 peptides
total peptides (BCL7C (human) [4]): 19 peptides
unique peptides (BCL7C (human) [4]): 8 peptides
total peptides (DPF1 (human)): 7 peptides
unique peptides (DPF1 (human)): 6 peptides
total peptides (BCL7A (human) [5]): 33 peptides
unique peptides (BCL7A (human) [5]): 12 peptides
total peptides (PBRM1 (human)): 115 peptides
unique peptides (PBRM1 (human)): 79 peptides
total peptides (BRD7 (human)): 29 peptides
unique peptides (BRD7 (human)): 19 peptides
total peptides (DPF2 (human)): 41 peptides
unique peptides (DPF2 (human)): 19 peptides
total peptides (GLTSCR1L (human)): 1 peptides
unique peptides (GLTSCR1L (human)): 1 peptides
total peptides [6]: 1
unique peptides [6]: 1
total peptides [7]: 1
unique peptides [7]: 1
Substance: HA-SMARCD1 (from UniProt Q96GM5 1-515)

stoichiometry relative to DPF2 bait (copies per DPF2) [8]: 1
Substance: SMARCC2 (SWI/SNF related, matrix associated, actin dependent regulator of chromatin subfamily c member 2) (from UniProt Q8TAQ2 1-1214)

total peptides (SMARCE1 (human)): 118 peptides
unique peptides (SMARCE1 (human)): 40 peptides
total peptides (ACTL6A (human) [9]): 61 peptides
unique peptides (ACTL6A (human) [9]): 23 peptides
total peptides (SS18L1 (human) [10]): 3 peptides
unique peptides (SS18L1 (human) [10]): 2 peptides
total peptides (SMARCB1 (human) [11]): 62 peptides
unique peptides (SMARCB1 (human) [11]): 22 peptides
total peptides (SMARCD1 (human)): 83 peptides
unique peptides (SMARCD1 (human)): 37 peptides
total peptides (BCL7C (human) [12]): 13 peptides
unique peptides (BCL7C (human) [12]): 7 peptides
total peptides (BCL7A (human) [13]): 36 peptides
total peptides (SS18 (human)): 2 peptides
unique peptides (SS18 (human)): 2 peptides
total peptides (SMARCD2 (human)): 51 peptides
unique peptides (SMARCD2 (human)): 32 peptides
Substance: HA-DPF2 (from UniProt Q92785 1-391)
